{"source": "patent US12194200B2", "about": "“Silk fibroin-based microneedles and methods of making the same” (Trustees of Tufts College, priority 2010, dated 2025)", "assay": "HRP enzymatic activity detected with chromogenic substrate", "type": "biochemical", "conditions": "after silk processing and collagenase digestion", "description": "The release kinetics of HRP from silk fibroin microneedles into the collagen hydrogels (N=3) were determined spectroscopically. The collagen hydrogel was selectively digested with collagenase. Subsequently, a colorimetric HRP enzyme activity assay was carried out as described later in the Exemplary Materials and Methods (FIG. 9C). […] Compared to the 2 hour and 8 hour water annealed devices, the untreated silk microneedles released in the same time period about 2.7±0.18 and about 5.6±0.99 times as much HRP, respectively. The beta sheet content in the silk fiborin microneedle samples was determined, e.g., by infrared spectroscopy, with results of ˜14%, ˜18% and ˜21% for the untreated, 2 hr-annealed and 8 hr-annealed silk fibroin microneedle samples, respectively. […]\nHRP release model: The silk fibroin microneedles were loaded with 1 mg/ml of HRP (Sigma Aldrich). […] The collagen or gelatin slab measured approximately 2.5 mm in height. […] The needles were pierced through Parafilm (Parafilm M, Pechiney Plastic Packaging) membranes (polymer membrane in FIG. 8A) and subsequently applied to the hydrogel slabs to quantify the HRP release. […] To quantify the total amount of HRP release from the silk fibroin microneedles, a plurality of stacks, each of which included an array of silk fibroin microneedles, a polymer membrane and a collagen hydrogel, were prepared and evaluated at multiple time points. […]", "data": [{"substance": "horseradish peroxidase [HRP]", "values": [{"measurement": "enzymatic activity of HRP", "value": "retained activity"}]}]}
